Measurements as given in publication PMC3678163.

Target: poly-SUMO2 chains (3–8) (UniProt P61956)
Experiment: SPR

UniProt P61956, sequence (P61956 whole entry): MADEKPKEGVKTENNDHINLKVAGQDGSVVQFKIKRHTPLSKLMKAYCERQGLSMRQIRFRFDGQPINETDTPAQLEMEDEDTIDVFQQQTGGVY

B1: RNF111(282–411) fragment, wild type (domain or fragment)
chain: SENHQNNPAVPSGSIDEDVVVIEASSTPQVTANEEINVTSTDSEVEIVTVGESYRSRSTLGHSRSHWSQGSSSHASRPQEPRNRSRISTVIQPLRQNAAEVVDLTVDEDEPTVVPTTSARMESQATSASI
Question: Which Kd does the source give for B1 here?
Answer: The Kd was 15 µM.
